Experimental data published in US20240261333A1 (published 2024).

Experiments:
Assay in all cases: co-IP, anti-FLAG, lysate of cells with N-FLAG B3GNT2; mass spectrometry
DNAJC3 = biological target: T1, DNAJC3 (human, UniProt Q13217 32-504)
T1 construct: also called NP_006251.1 (+4)
T1 sequence (looked up): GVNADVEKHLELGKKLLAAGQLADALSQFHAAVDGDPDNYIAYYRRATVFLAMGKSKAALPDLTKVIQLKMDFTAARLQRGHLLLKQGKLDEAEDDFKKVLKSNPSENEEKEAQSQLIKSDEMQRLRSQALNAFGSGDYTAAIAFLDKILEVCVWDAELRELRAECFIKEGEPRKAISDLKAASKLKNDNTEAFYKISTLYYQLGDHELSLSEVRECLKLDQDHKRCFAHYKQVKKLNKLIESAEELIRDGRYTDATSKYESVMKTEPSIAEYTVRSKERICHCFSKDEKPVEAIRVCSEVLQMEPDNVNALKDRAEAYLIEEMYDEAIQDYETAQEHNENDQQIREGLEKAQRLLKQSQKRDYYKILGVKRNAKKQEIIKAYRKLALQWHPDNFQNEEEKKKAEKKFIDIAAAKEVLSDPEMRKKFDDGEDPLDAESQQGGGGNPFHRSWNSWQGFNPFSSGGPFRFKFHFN

RBM39 = biological target: T2, RBM39 (human, UniProt Q14498-3 2-508, limits assumed)
T2 construct: also called NP_001310351.1 (+3)
T2 sequence (looked up): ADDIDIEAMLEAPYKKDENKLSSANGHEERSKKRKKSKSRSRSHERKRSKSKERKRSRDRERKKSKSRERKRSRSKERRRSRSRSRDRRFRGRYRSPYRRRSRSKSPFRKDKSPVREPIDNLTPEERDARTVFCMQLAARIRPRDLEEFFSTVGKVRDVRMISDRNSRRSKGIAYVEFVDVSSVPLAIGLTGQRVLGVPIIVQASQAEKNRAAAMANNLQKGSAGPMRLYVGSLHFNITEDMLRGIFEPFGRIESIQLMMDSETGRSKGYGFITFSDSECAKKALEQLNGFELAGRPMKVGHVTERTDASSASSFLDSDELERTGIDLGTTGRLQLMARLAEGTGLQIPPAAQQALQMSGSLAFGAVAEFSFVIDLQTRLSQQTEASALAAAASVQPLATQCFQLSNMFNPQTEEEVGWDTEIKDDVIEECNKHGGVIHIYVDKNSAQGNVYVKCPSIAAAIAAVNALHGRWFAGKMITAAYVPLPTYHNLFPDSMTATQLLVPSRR

CSE1L = biological target: T3, CSE1L (human, UniProt P55060-4 1-915, limits assumed)
T3 construct: also called NP_001243064.1 (+2)
T3 sequence (looked up): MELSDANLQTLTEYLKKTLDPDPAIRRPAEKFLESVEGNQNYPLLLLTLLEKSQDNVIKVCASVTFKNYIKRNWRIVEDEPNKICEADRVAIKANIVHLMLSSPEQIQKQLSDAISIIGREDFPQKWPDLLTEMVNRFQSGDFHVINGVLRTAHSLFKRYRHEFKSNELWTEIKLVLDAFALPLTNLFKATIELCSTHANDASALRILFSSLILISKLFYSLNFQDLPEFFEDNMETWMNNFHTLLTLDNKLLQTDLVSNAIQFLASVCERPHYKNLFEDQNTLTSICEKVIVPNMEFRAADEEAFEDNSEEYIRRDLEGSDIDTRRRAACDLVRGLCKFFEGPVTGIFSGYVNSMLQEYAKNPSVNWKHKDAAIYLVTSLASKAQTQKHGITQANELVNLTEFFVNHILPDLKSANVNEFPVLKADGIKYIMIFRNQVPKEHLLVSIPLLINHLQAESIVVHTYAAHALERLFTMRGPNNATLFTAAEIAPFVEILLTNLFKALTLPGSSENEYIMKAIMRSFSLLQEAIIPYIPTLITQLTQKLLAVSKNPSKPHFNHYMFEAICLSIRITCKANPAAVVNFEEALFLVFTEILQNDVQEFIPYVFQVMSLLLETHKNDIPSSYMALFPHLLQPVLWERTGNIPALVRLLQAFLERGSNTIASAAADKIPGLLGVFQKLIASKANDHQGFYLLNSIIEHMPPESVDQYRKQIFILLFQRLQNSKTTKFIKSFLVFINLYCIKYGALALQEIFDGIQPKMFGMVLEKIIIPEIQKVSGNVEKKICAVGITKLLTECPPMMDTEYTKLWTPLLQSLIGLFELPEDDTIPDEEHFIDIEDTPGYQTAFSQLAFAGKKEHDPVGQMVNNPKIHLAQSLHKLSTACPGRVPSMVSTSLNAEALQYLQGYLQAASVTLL

co-IP mass spectrometry count (DNAJC3): 0 | co-IP mass spectrometry count (RBM39): 4 | co-IP mass spectrometry count (CSE1L): 0
B1: N-terminal FLAG tagged B3GNT2 (enzyme, human, UniProt Q9NY97 1-397, looked up)
chain: MSVGRRRIKLLGILMMANVFIYFIMEVSKSSSQEKNGKGEVIIPKEKFWKISTPPEAYWNREQEKLNRQYNPILSMLTNQTGEAGRLSNISHLNYCEPDLRVTSVVTGFNNLPDRFKDFLLYLRCRNYSLLIDQPDKCAKKPFLLLAIKSLTPHFARRQAIRESWGQESNAGNQTVVRVFLLGQTPPEDNHPDLSDMLKFESEKHQDILMWNYRDTFFNLSLKEVLFLRWVSTSCPDTEFVFKGDDDVFVNTHHILNYLNSLSKTKAKDLFIGDVIHNAGPHRDKKLKYYIPEVVYSGLYPPYAGGGGFLYSGHLALRLYHITDQVHLYPIDDVYTGMCLQKLGLVPEKHKGFRTFDIEEKNKNNICSYVDLMLVHSRKPQEMIDIWSQLQSAHLKC
notes: Overexpressed in cells and pulled down from the lysate with mouse anti-FLAG antibody; also called N-FLAG B3GNT2; N-term FLAG; not shown: N-terminal FLAG tag
